The record followed here is patent US20150359847A1, “METHOD AND COMPOSITION FOR CONFERRING NEUROPROTECTION” (BLOOD SYSTEMS RESEARCH INSTITUTE, priority 2014, published 2015).

In assay [1] the test system is S6 Ribosomal Protein (S235/236) in primary hippocampal neurons. The assay is described as follows: S6 Ribosomal Protein (S235/236) phosphorylation in primary hippocampal neurons. The class given is cell-based, mouse. As to conditions: 1 μg/ml TIMP3, 15 mins. As for the experimental part:
SH-SY5Y cells were obtained from ATCC (Cat# CRL-2266, Manassas, Va.) and were cultured in DMEM and 10% FBS up to passage 10. For differentiation of SH-SY5Y cells into a neuronal phenotype, cells were first plated in DMEEM+10% FBS for 24 hrs before exchanging media in DMEM+1% FBS 10 μM retinoic acid. Differentiation was performed for 3 days before experimentation. Hippocampal neurons were prepared according to the protocol by Beaudoin et al. (Nature Protocols 2012; 7(9):1741-1754) with minor modifications. In brief, after trypsin digestion of hippocampi isolated from P1 mouse pups single cell suspensions was created by trituration and plated onto Biocoat™ poly-D-lysine coated 12-well plates (Cat#354470, BD Biosciences, San Jose, Calif.). […]
Pathscan Antibody™ array kits were purchased from Cell Signaling Technologies (Danvers, Mass.). PathScan® RTK signaling antibody array kit (Fluorescent Readout, Cat#7949) and PathScan™ Akt signaling antibody array kit (Fluorescent Readout, Cat#9700) were performed as per manufacturer's instructions. Imaging was performed on a LI-COR Odyssey™ infrared scanner and pixel densities measured by in house LI-COR Image™ suite software. […]
Lysates was analyzed in conjuncture with the LI-COR Odyssey™ infra-red imaging system. […] After further wash steps images were obtained using a LI-COR™ Odyssey scanner and quantified using LI-COR™ Image Studio software. […]

For another assay, the target named is T1, MMP-2 (Homo sapiens, UniProt P08253).
T1 sequence (P08253 110-660): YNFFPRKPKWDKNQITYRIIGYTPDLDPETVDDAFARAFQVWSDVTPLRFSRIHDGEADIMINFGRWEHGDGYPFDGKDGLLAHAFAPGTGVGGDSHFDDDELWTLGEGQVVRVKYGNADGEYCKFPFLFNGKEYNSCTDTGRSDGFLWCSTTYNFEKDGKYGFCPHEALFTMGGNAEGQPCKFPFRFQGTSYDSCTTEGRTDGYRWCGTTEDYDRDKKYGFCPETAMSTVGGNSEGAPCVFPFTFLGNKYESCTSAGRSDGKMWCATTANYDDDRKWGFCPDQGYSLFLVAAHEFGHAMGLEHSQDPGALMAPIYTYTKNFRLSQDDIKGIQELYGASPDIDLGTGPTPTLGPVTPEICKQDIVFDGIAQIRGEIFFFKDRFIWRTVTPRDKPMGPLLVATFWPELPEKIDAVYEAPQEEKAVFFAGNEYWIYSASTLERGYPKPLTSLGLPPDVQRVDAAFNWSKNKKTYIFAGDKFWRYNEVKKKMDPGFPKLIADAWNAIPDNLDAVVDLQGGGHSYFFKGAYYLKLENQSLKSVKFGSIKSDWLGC
The assay is described as follows: SensoLyte Fluorimetric MMP-2 Activity Assay. The format is biochemical. As to conditions: dose response; 1 μg/ml TIMP3. An excerpt:
SensoLyte Fluorimetric MMP-2 Activity Assay Kit™ (Cat#71151) and SensoLyte Fluorimetric MMP-9 Activity Assay Kit™ (Cat#71155) were purchased from AnaSpec (Fremont, Calif.) and performed per manufacturer's instructions.

B1: TIMP3: Recombinant tissue inhibitor of matrix metalloproteinase-3, a soluble protein released by MSCs, obtained from Amgen Inc. (protein)
chain: CTCSPSHPQDAFCNSDIVIRAKVVGKKLVKEGPFGTLVYTIKQMKMYRGFTKMPHVQYIHTEASESLCGLKLEVNKYQYLLTGRVYDGKMYTGLCNFVERWDQLTLSQRKGLNYRYHLGCNCKIKSCYYLPCFVTSKNECLWTDMLSNFGYPGYQSKHYACIRQKGGYCSWYRGWAPPDKSIINATDP
Take B1: in assay [1], the “S6 Ribosomal Protein (S235/236) activation, western blot” value is reported as “activates S6 Ribosomal Protein (S^235/236)” and the “S6 Ribosomal Protein (S235/236) phosphorylation, antibody array” value was “phosphorylates mTORC1 pathway target S6 Ribosomal Protein (S^235/236)”. The “MMP-2 inhibition (Sensolyte FRET assay)” value in the assay with MMP-2 is “can fully inhibit”.
